Experimental data as given in the DeepSol protein solubility set.

Assay: soluble on expression in E. coli; label from the status in PepcDB or PDB records

Sequence	soluble on expression in E. coli
MSLKKSWLGYAQGYLLYRDLNNHSMTAIRISPETLEQDGTVLLPDCHTEGQNILFTDGEYINQIAASRDDGFVVRIFATSTEPVLQQELQLKLARKCLHACGISLFDLEKDLHIISTGFDEESAILGAGREFALMKTANGKIYYTGKYQSLGIKQGGPSAGKWVELPITKSPKIVHFSVGHDGSHALLVAEDGSVFFTGSASKGEDGESTKSRRQSKPYKPKKIIKMEGKIVVYTACNNGSSSVISKDGELYMFGKDAIYSDSSSLVSDLKGHFVTQVAMGKAHTCVLMKNGEVWTFGVNNKGQCGRDTGAMNQGGKGFGVENMATAMDEDLEEELDEKDEKSMMCPPGMHKWKLEQCMVCTVCGDCTGYGASCVSSGRPDRVPGGICGCGSGESGCAVCGCCKACARELDGQEARQRGILDAVKEMIPLDLLLAVPVPGVNIEEHLQLRQEEKRQRVIRRHRLEDGRGPLVFAGPIFMNHREQALARLRSHPAQLKHKRDKHKDGSGDRGEKDASKITTYPPGSVRFDCELRAVQVSCGFHHSVVLMENGDVYTFGYGQHGQLGHGDVNSRGCPTLVQALPGPSTQVTAGSNHTAVLLMDGQVFTFGSFSKGQLGRPILDIPYWNAKPAPMPNIGSKYGRKATWIGASGDQTFLRIDEALINSHEGHHHHHH	not soluble
MSLKKTVSLCDITITQMLEEDSNQGHLIGDFSKVCALPTVSGKHQDLKYVNPETVAALLSGKFQGLIEKFYVIDCRYPYEYLGGHIQGALNLYSQEELFNFFLKKPIVPLDTQKRIIIVFHCEFSSERGPRMCRCLREEDRSLNQYPALYYPELYILKGGYRDFFPEYMELCEPQSYCPMHHQDHKTELLRCRSQSKVQEEGHHHHHH	soluble
MSLKKVNVTYALLYDKTKEKILMVKNKGKNGSYYTLPGGAVKLGETLEEAVIREVKEETGLHITVNGICYISEAFFEERGHHAIFFNFLGEIIGGETNITRPKEIEEITWMELHIASPHLRIPEHLVNMLKKKETVPYFFNGTIVHQSSEGHHHHHH	not soluble
MSLKLARINLSRDDIHKRLGGGIPYGSIILVEGEESTGKSIIAQRLAYGFLQTAHSVTYTSTQLTTLEFVKQMMSLNYNINKKLLSGTLLYIPVYPLISDNTQKDDFIKKIMETRAFYEKDIVIFDSLSSLIVNDASDIKVNDLMAFFKRIASMNKVIIYTINPKELPESILTLLRSSATMVLKTEIYTFGGNIKNLVKIEKYNLAQGPFQKLMVFRVEPKLGIAVEISSVAEGHHHHHH	soluble
MSLKLIGLLMLSYPLQAAPTDLSRYLETQLKEDAREALNSYLQQQGWSASEVDYQVWLSPAVTHLPPCQQAIRLQAGGQYRQPWGRRPYLAECTEPAWQLRARVEVTLMLPVWVTAQEIQKGQTIRTGDLVEKSLDISRLQRGFVPSSESLVGSKSNRNLRMGQLIGELDLQKAWAIREGEGVLIRAGLDGFSATTRGKALANGAIGDGIKVRNISSGKEIQAWVIEKGEVETRFEGHHHHHH	not soluble
MSLKLTGEESDTLRKIVLEECLPNQQQNQNPSPCAEVKPNAGYVVLKDLNGPLQYLLMPTYRINGTESPLLTDPSTPNFFWLAWQARDFMSKKYGQPVPDRAVSLAINSRTGHTQNHFHIHISCIRPDVREQLDKNLANISSRWLPLPGGLRGHEYLARRVTESELVQRSPFMMLAEEVPEAREHMGSYGLAMVRQSDNSFVLLATQRNLLTLNRASAEEIQDHECEILREGHHHHHH	soluble
MSLKLYKEIINLIDNHQATMVEQLHQFCEINSGTTNLTGLAIMAETLCSAFKPIADTTELITLPPLSVIDMTGNTVMQSCGDVLFISKRPHLKRRILLSGHMDTVYSASNPFQKLSYLDANQINGPGVADMKGGLIVILHALAAFENTRFAEDMGWDVLINSDEEIGSPTSGSLFNKLAHRYQAALVYEPAMTPNGTLAKNRKGSGKLTLVATGRAAHAGRAFDEGRNAICYLAEAITAVHALNGQKNGVTINVGKIAGGEALNVVPDKAVAQLDIRISLPEDEIWVRNELNKIIKQLERPDYSLNVHGTFGRPVKRICAGTERLFHRIQKIGEALGLTIDWKDSGGCCDGNNLAHYGLPVLDTLGVRGGNIHSSDEYILLDSLSERAALSALLLIDLAQGGLEDLIKEGHHHHHH	soluble
MSLKMRVYYEDTDAGGVVYHSNYLKFCERARSEIFFNKKVDIFDASKGHFLLAKANCNFLKPAKLGDMIEIKTKILEVKNASVEILQEIYKDEILLFKMELTLAFIKNEKPARMDMQLKKLFEELFEGGSHHHHHH	soluble
MSLKNDVSPLEIKVIDENSEQYGISKETLMENAGRAVYEEIVNLNVDFSKTYLFCGTGNNGGDGFVIARHLANNFATFVVLIGNERKIKTSETQRNFNTVKNMEFFGNLDYANILDDERAVELLKTIEKELENKQNDHILIIDAMLGTGITGILKNPYSTIVDYLNVLKSKYSKKLKMVSVDIQTGNLNADLEVILHKRKFENKNKNFVVKDIGIPKYIENMVGKGDFYLLNERKQNSHKGQNGNVLVIGGSKEYHGAPVFSALAASKFADIVTVASVSNVMNTVSNYPELMPYELTGDYIVQNHVDELLELSKNYDCVVLGSGISVNSDTKEFVNSYLNETNGKVVIDADAIKLIDYSNFKFKNNFIFTPHKKEFEYIENYIESSGFKSTVVLKGSLDIIFNSNNIKMNITGNQGMTVGGTGDILCGIIGAIYACNDAFPSACCGTYINGYCGDLLEKEYGYYYNSTDIIKILPKALKELLYEGHHHHHH	soluble
MSLKNEKQDITLWIAPNNVQEAFWSEVVGEWNKQPDKKKVVFSTIPAAGSSEEAIMNAIASDRAPDISENIFTGFGSQLADLGQVVDLSTLDGYENLISTRQMTDIMDNWRYNGKNYILPIYMNPVLFWWRGDLLKEQGFSEVPKTYDEVYALSEKYTIPDKRYAIQATSGRNWWDRWFDFIALYYAQSDGKPYIANQQASYDNQAGRDVLDFMHTLFSKKWTLYDFGQDDPLVTGKVLGAVRGPWDISRYQQQYPEILKHIKMGPMLVKEQQDKPHTFADGKGLVLFSHSKVKPEAWEFIQWVFSQPKFDKRWMELTGMPPARADLLTNPFFAEYYQEHPYAAAYAEYVNVAIPPVSSGETVEIQRSMTQMIEKTAFNTSTPDEALQQSIKEVNAILKEGHHHHHH	soluble
MSLKNTLILGIESSCDETAASVVKNGNEIISSVVASQIESHKRFGGVVPEIASRHHVEQITLVIEEALKQANVTMDDLDGVAVTEGPGLVGALLIGVNAAKTLAFMHNLPLVGVHHIAGHIYANRFETEFKFPLLSLVVSGGHTELVLMKADNEFEIIGETRDDAAGEAYDKVARTLGLAYPGGVQIDKLAKDGEDTFHFPRAMMDEGSFDFSFSGLKSSFINTLHNLRQRGEEPNPNDMAASFQASVVDVLVSKTIRAAKQYDVKQLLLAGGVAANQGLRERLIQEVKLELPETELIIPPLALCGDNAAMIAAAGTVSFLQGKRSGFDMNANPGLLLEDIEGHHHHHH	soluble
MSLKPRACVVVYPGSNCDRDAYHALEINGFEPSYVGLDDKLDDYELIILPGGFSYGDYLRPGAVAAREKIAFEIAKAAERGKLIMGICNGFQILIEMGLLKGALLQNSSGKFICKWVDLIVENNDTPFTNAFEKGEKIRIPIAHGFGRYVKIDDVNVVLRYVKDVNGSDERIAGVLNESGNVFGLMPHPERAVEELIGGEDGKKVFQSILNYLKREGGSHHHHHH	soluble
MSLKPSDAEEARTEAFLVKLREFLDTVDGSVIERAAQIPDEYVKGLAELGCFGLKIPSEYGGLNMSQVAYNRVLMMVTTVHSSLGALLSAHQSIGVPEPLKLAGTAEQKRRFLPRCAAGAISAFLLTEPDVGSDPARMASTATPIDDGQAYELEGVKLWTTNGVVADLLVVMARVPRSEGHRGGISAFVVEADSPGITVERRNKFMGLRGIENGVTRLHRVRVPKDNLIGREGDGLKIALTTLNAGRLSLPAIATGVAKQALKIAREWSVERVQWGKPVGQHEAVASKISFIAATNYALDAVVELSSQMADEGRNDIRIEAALAKLWSSEMACLVGDELLQIRGGRGYETAESLAARGERAVPVEQMVRDLRINRIFEGSSEIMRLLIAREAVDAHLTAAGDLANPKADLRQKAAAAAGASGFYAKWLPKLVFGEGQLPTTYREFGALATHLRFVERSSRKLARNTFYGMARWQASLEKKQGFLGRIVDIGAELFAISAACVRAEAQRTADPVEGEQAYELAEAFCQQATLRVEALFDALWSNTDSIDVRLANDVLEGRYTWLEQGEGHHHHHH	not soluble
MSLKPVMIIQFSASEGPGHFGDFLAGEHIPFQVLRMDRSDPLPAEIRDCSGLAMMGGPMSANDDLPWMPTLLALIRDAVAQRVPVIGHCLGGQLLAKAMGGEVTDSPHAEIGWVRAWPQHVPQALEWLGTWDELELFEWHYQTFSIPPGAVHILRSEHCANQAYVLDDLHIGFQCHIEMQAHMVREWCSISPEELKGGAEADEGHHHHHH	not soluble
MSLKQERQEKIEVLKEFKDDGATKFSSYYFDLKKNQILSSGSLTTSWRVIDFSEVLSYQVNRNGHLEQKHHGIARAVTGGIMAGGVGAIVGTTTGENTDYIDHLGLVINLSDGTNFEVKFLKTKTKTNSFTVKTAEGELRSLISIVQSGMNKAQEKAEQEQTKANTIKIESNADPAEEIRKFKKMADEGIISNEEFEAKKKQLLNLQEGHHHHHH	soluble
MSLKRAEPQSLQVSQNELQAMAYSDPLTGLGNRYRLRDKIRMLASERSSDPAPFTVGIANIDGFKPINDLFGVQAGDEILCQVAHRLKACIPDGAIVTRHDGDEFAFVLPLIFERIGAERIGNMIKDVLSAPYDLGDRNVRLSSSFGFAIYPFAGDEYEDLLKSAETALYRSKRRGRGQITVYSREIAQEMKRATQLEQALRNAIITDAIDVHFQPIVRLEEAKVIGFEALARWNDPDLGFVSPAVFVPLAEERGFIDALSEALLRKAAEAALFWPRELFLSFNLSSAQLMDPSTSDNILSILSRVGLDPHRLELEITETAVMTSADTAQRIISELQSAGVRISLDDFGTGQSSLGRLRDFTFDKVKIDRAFVSRISSDRPSEHIIKAIVAMCEGLDLEVVAEGIEERVEEEKLRALGCAMGQGYFYGRPVDAAATQRYLHENYREILSDISEGHHHHHH	soluble
MSLKREEICRLLADKVNKLKNKENSLSELLPDVRLLYGETPFARTPVMYEPGIIILFSGHKIGYINERVFRYDANEYLLLTVPLPFECETYATSEVPLAGLRLNVDILQLQELLMDEGHHHHHH	not soluble
MSLKSVIVPAPGKIEIREVETPVINAYQALVKTEMVALCNATDSKLIAGHFPGVDTYPLALGHENAGIVVAVGEKVRNFKVGDRAIGGLISDFGAQGINSGWGGFSEYVVVNDFEVLKEEGLATPEQGCWDSFEIQNSVPAHVQPEEAVISCTWREVLGAFKDFNLTPGKKVIVVGSGPVGLSFVKLGKLFGLGQIDIVDMLPAKLEVARRMGADNGYTPAEISTPEFIAAAGRSYDAVIDAVGLDVVVNSVLPLVKMGGDVCVYGVMTKNPTFDLSKAPYNFDLHMHQWPTRSEEKAAMTTLAQWIEEGTLSASDFITHRFKIEEIEEAFAAVKRGEVLKCVLTEGHHHHHH	not soluble
MSLKTIAINQYGSADEFTMVDMPTTEPQADEVQVAIHAFSLNPMDIAGRMGALSSPFTDLWAFPLVLGWDFAGVITKMGKAVTGFNIGDAVFGSAAPAHAANNGTYGEFITVNTKELAHLPAGLSFDQAAALPIAGLTAYYGMKHNLKLQSGQKILVQGGAGGVGLFAIQIAKAFGAYVATTASANHRDLLTRLGADEVIDYHETDPAAVLHDYDAVFDTVGDIDTGLKVLKADGQLATIAGQPTDEQQHDQQKKVAFQFTQGSSQDLADLAQLVVSGQVKLTVATLPFSVANVIKGHRSIESRHTTGKIVIHVTEGHHHHHH	not soluble
